Assay results: patent publication US20220064275A1 (SCHOLAR ROCK, published 2022)

Assays:
[1] = target: hLRRC33-proTGFβ1 complex on cells (human, UniProt Q86YC3 19-692; P01137 30-390); experiment: cell-based or functional assay
[2] = target: hLTBP1-proTGFβ1 complex made by transfected cells (cell-based potency assay) (human, UniProt Q14766 347-1721; P01137 30-390); experiment: cell-based or functional assay
[3] = target: hGARP-proTGFβ1 complex on cells (human, UniProt Q14392 20-662; P01137 30-390); experiment: cell-based or functional assay
[4] = target: hLTBP3-proTGFβ1 complex made by transfected cells (cell-based potency assay) (human, UniProt Q9NS15 44-1303; P01137 30-390); experiment: cell-based or functional assay
[5] = target: T1, human LRRC33-proTGFβ1 complex (human, UniProt Q86YC3 19-650; P01137 30-390); experiment: BLI (Octet)
T1 construct: also called hLRRC33-proTGFβ1; hLRRC33
T1 sequence (Q86YC3 other isoform, or with tags, fused parts or gaps limits assumed, chain 1 of 2): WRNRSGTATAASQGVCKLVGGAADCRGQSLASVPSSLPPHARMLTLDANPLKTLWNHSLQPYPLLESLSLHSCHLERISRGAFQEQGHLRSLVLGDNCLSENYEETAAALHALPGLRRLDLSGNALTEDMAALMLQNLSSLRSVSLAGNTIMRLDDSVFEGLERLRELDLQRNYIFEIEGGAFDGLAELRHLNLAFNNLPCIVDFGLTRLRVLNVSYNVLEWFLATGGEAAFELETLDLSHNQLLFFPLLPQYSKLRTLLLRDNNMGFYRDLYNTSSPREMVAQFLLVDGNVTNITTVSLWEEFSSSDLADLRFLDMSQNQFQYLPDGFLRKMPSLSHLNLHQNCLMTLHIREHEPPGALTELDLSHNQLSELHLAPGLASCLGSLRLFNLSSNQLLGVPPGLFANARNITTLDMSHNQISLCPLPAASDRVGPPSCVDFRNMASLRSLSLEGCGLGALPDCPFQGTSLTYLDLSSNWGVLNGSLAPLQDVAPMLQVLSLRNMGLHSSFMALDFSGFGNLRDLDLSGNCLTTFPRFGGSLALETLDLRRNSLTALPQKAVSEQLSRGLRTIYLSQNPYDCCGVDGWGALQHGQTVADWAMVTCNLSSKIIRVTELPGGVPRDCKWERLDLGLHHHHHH
T1 sequence (P01137 30-390 limits assumed, chain 2 of 2): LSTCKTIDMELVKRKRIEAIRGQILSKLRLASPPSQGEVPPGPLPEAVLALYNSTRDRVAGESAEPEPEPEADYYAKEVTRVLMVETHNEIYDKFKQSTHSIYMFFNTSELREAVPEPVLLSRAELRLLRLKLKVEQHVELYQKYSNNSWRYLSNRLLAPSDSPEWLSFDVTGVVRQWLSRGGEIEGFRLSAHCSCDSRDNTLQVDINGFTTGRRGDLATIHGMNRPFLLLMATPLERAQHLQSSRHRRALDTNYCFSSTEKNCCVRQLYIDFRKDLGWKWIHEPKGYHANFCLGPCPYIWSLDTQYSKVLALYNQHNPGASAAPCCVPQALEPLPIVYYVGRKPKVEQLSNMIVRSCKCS

[6] = target: T2, human LTBP1-proTGFβ1 complex (human, UniProt Q14766 873-1507); experiment: BLI (Octet)
T2 construct: range 873-1507; biotinylated in Octet and MSD-SET; also called hLTBP1-proTGFβ1; hLTBP1
T2 sequence (Q14766 873-1507 limits assumed, chain 1 of 2): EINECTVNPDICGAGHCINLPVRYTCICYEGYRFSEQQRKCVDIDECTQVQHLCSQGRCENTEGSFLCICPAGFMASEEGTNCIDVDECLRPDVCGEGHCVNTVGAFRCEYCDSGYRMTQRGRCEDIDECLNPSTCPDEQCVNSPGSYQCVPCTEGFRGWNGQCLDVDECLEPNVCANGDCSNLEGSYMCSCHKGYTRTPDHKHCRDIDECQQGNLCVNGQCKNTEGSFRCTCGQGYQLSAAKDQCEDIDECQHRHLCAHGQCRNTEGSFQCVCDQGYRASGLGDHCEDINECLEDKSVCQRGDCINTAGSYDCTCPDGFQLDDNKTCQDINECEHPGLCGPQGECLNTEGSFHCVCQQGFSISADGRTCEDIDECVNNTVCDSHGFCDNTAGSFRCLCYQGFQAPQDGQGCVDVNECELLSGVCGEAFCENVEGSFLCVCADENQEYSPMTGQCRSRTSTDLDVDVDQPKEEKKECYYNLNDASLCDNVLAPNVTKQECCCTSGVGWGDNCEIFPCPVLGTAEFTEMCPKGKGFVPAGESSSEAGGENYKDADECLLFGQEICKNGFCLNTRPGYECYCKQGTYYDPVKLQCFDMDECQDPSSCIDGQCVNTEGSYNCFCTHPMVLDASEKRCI
T2 sequence (chain, as listed by the source limits assumed, chain 2 of 2): as the sequence (P01137 30-390 limits assumed, chain 2 of 2) above

[7] = target: T3, human LTBP3-proTGFβ1 complex (human, UniProt Q9NS15 866-1039); experiment: BLI (Octet)
T3 construct: range 866-1039; also called hLTBP3-proTGFβ1; hLTBP3
T3 sequence (Q9NS15 866-1039 limits assumed, chain 1 of 2): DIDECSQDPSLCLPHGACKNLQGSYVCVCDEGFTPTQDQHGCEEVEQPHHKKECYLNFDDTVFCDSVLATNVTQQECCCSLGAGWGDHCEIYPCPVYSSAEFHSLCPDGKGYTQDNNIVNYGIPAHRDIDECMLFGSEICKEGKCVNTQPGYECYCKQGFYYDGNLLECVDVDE
T3 sequence (chain, as listed by the source limits assumed, chain 2 of 2): as the sequence (P01137 30-390 limits assumed, chain 2 of 2) above

[8] = target: T4, human GARP-proTGFβ1 complex (human, UniProt Q14392 20-627; P01137 30-390); experiment: BLI (Octet)
T4 construct: also called hGARP-proTGFβ1; hGARP
T4 sequence (Q14392 20-627, chain 1 of 2): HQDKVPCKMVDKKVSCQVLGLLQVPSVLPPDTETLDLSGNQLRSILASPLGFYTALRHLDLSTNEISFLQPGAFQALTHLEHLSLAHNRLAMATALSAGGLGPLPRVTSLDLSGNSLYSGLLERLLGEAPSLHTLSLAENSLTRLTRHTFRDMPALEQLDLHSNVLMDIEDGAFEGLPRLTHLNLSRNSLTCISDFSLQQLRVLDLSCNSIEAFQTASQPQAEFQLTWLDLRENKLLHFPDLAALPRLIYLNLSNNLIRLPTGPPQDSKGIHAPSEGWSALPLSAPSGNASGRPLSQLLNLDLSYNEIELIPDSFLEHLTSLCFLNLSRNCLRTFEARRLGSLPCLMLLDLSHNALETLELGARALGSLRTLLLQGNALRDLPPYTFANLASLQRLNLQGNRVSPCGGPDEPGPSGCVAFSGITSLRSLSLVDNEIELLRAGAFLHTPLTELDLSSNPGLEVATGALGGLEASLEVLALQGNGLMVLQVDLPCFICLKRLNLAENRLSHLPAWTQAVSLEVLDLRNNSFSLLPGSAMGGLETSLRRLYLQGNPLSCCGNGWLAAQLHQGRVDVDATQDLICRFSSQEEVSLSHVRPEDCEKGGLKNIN
T4 sequence (P01137 30-390, chain 2 of 2): as the sequence (P01137 30-390 limits assumed, chain 2 of 2) above

hLRRC33-proTGFβ1 complex on cells, sequence (Q86YC3 19-692 limits assumed, chain 1 of 2): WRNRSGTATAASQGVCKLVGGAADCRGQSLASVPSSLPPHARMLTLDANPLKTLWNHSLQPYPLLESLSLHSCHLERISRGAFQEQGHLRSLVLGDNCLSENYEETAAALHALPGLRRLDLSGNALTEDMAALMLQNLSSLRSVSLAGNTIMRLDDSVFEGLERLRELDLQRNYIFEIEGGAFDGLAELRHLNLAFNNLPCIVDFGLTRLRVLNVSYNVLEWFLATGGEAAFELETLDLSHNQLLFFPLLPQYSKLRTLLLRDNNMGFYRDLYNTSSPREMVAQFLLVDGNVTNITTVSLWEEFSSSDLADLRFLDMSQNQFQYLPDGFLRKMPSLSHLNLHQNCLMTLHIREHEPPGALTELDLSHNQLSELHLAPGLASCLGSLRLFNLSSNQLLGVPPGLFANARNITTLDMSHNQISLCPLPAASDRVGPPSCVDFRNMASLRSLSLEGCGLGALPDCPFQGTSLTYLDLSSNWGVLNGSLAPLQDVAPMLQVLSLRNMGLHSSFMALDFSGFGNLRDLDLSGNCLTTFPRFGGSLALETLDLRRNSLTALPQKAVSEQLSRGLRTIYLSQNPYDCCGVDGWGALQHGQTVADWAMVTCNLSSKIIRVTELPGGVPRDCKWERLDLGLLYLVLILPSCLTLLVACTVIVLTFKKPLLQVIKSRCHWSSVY
hLRRC33-proTGFβ1 complex on cells, sequence (P01137 30-390 limits assumed, chain 2 of 2): as the sequence (P01137 30-390 limits assumed, chain 2 of 2) above

IC50, reporter cell assay of TGFβ1 activation [1] [nM] | IC50, reporter cell assay of TGFβ1 activation [2] [nM] | IC50, reporter cell assay of TGFβ1 activation [3] [nM] | IC50, reporter cell assay of TGFβ1 activation [4] [nM] | Kd [5] [nM] | Kd [6] [nM] | Kd [7] [nM] | Kd [8] [nM] | Binder
0.616 | 1.29 | 0.14 | 1 | – | – | – | – | Ab5 (antibody, V domains shown) VH: EVQLVESGGGLVQPGGSLRLSCAASGFTFSSFSMDWVRQAPGKGLEWVSYISPDASTIYYADSVKGRFTISRDNAKNSLYLQMNSLRAEDTAVYYCARGVLDYGDMLDPWGQGTLVTVSS VL: DIQMTQSPSSLSASVGDRVTITCQASQDITNYLNWYQQKPGKAPKLLIYDASNLETGVPSRFSGSGSGTDFTFTISSLQPEDIATYYCQQADNHPPWTFGGGTKVEIK
0.596 | 1.61 | 0.401 | 0.765 | 0.455 | 0.225 | 0.268 | 0.833 | Ab21 (antibody, V domains shown) VH: EVQLVESGGGLVQPGGSLRLSCAASGFTFSSFSMDWVRQAPGKGLEWVSYISPDASTIYYADSVKGRFTISRDNAKNSLYLQMNSLRAEDTAVYYCARGVLDYGDMLDPWGQGTLVTVSS VL: DIQMTQSPSSLSASVGDRVTITCQASQDITNYLNWYQQKPGKAPKLLIYDASNLETGVPSRFSGSGSGTDFTFTISSLQPEDIATYYCQQADNHPPWTFGGGTKVEIK
0.579 | 0.835 | 0.264 | 0.879 | 0.455 | 0.417 | 0.468 | 1.34 | Ab23 (antibody, V domains shown) VH: EVQLVESGGGLVQPGGSLRLSCAASGFTFSSFSMNWVRQAPGKGLEWVSYISPSADTIYYADSVKGRFTISRDNAKNTLYLQMNSLRAEDTAVYYCARGVLDYGDMLDPWGQGTLVTVSS VL: DIQMTQSPSSLSASVGDRVTITCQASQDITNYLNWYQQKPGKAPKLLIYDASNLETGVPSRFSGSGSGTDFTFTISSLQPEDIATYYCQQADNHPPWTFGGGTKVEIK
0.653 | 6.08 | 0.442 | 0.538 | 0.409 | 0.217 | 0.152 | 0.488 | Ab25 (antibody, V domains shown) VH: EVQLVESGGGLVQPGGSLRLSCAASGFTFGSFSMDWVRQAPGKGLEWVSYISPDASTIYYADSVKGRFTISRDNAKNSLYLQMNSLRAEDTAVYYCARGVLDYGDMLDPWGQGTLVTVSS VL: DIQMTQSPSSLSASVGDRVTITCQASQDITNYLNWYQQKPGKAPKLLIYDASNLETGVPSRFSGSGSGTDFTFTISSLQPEDIATYYCQQADNHPPWTFGGGTKVEIK
5.37 | 14.5 | 3.71 | 2.71 | – | – | – | – | Ab1 (antibody, V domains shown) VH: EVQLLESGGGLVQPGGSLRLSCAASGFTFRNYAMSWVRQAPGKGLEWVSSISGSGGATYYADSVKGRFTISRDNSKNTLYLQMNSLRAEDTAVYYCARVSSGHWDFDYWGQGTLVTVSS VL: DIQLTQSPSSLSASVGDRVTITCQASQDISNFLNWYQQKPGKAPKLLIYDASNLETGVPSRFSGSGSGTDFTFTISSLQPEDIATYYCQQVFNPPLTFGGGTKVEIK
